Results: article PMC6007975
“And” between values parts separate entries of the source, which are not always exact repeats. Equal values may be shown once.

Molecular target: N-terminal fragment of mouse GSDMA3 (GSDMA3-NT) (mouse) (UniProt Q5Y4Y6)
Test: cryo-EM structure

With “N-terminal fragment of mouse GSDMA3 (GSDMA3-NT) (from UniProt Q5Y4Y6 1-262) (domain or fragment)” the stoichiometry N was 26 and 28.
